We go through 1 molecule from article PMC7486707 (Proceedings of the National Academy of Sciences of the …, 2020).

For this experiment, the target named is T1, STM-His6 (SHOOT …) (Arabidopsis thaliana, UniProt Q38874 1-382).
T1 sequence (looked up): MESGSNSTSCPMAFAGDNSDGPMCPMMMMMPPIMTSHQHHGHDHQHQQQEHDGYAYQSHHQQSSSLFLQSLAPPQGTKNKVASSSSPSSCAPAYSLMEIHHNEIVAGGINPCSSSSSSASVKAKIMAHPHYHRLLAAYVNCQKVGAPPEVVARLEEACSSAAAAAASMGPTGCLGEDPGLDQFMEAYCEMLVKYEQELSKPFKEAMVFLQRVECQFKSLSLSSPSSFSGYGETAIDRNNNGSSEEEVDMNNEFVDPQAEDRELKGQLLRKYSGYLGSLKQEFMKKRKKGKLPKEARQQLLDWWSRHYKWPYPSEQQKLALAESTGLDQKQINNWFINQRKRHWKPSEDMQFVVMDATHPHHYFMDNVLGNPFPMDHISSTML
Nature of the experiment: pull-down.

B1: GST-WUS (WUSCHEL) (natural protein, Arabidopsis thaliana, UniProt Q9SB92 1-292, looked up)
chain: MEPPQHQHHHHQADQESGNNNNNKSGSGGYTCRQTSTRWTPTTEQIKILKELYYNNAIRSPTADQIQKITARLRQFGKIEGKNVFYWFQNHKARERQKKRFNGTNMTTPSSSPNSVMMAANDHYHPLLHHHHGVPMQRPANSVNVKLNQDHHLYHHNKPYPSFNNGNLNHASSGTECGVVNASNGYMSSHVYGSMEQDCSMNYNNVGGGWANMDHHYSSAPYNFFDRAKPLFGLEGHQEEEECGGDAYLEHRRTLPLFPMHGEDHINGGSGAIWKYGQSEVRPCASLELRLN
For the molecule B1, the binding result is listed as “binds”.
